The text below walks through data of US8431111B2, “Peptide imaging agents” (GE Healthcare Limited, priority 2007, dated 2013).

This series is described as follows: Limited acute dose toxicity study in male rats. In kind it is in vivo, rat. How it is done:
A limited acute dose toxicity study was conducted to investigate the tolerance of Compound 6 at 100 times the preclinical imaging dose (50 nmol/kg body weight). The compound was injected intravenously in male rats, and the animals were sacrificed at 1, 14, 21 and 28 days post injection (p.i.). At necropsy, the major organs were inspected for gross pathology, and the kidneys were taken into neutral buffered formalin for subsequent histomorphological evaluation. A weak blue colouration of the skin and a moderate blue colouration of the urine were observed immediately after injection, which disappeared within 1 day p.i. […] The other minor changes seen were incidental and common in young adult laboratory rats. Strong fluorescence staining of blood vessels in the kidney was observed on day 1 p.i.

Where a SMILES comes first, the peptide text is derived from it. Bridges are numbered along the chain shown (N, C = ends). The star is where a group is joined. X1 = CC1=CC(C)(C)N(CCCS(=O)(=O)O)c2cc3c(cc21)/C(=C/C=C/C1=[N+](CCCS(=O)(=O)O)c2ccc(S(=O)(=O)[O-])cc2C1(C)CCCC(=O)*)C=C(C(C)(C)C)O3

On to `CC(=O)N[C@@H](C)C(=O)NCC(=O)N[C@@H](CO)C(=O)N[C@H]1CSSC[C@@H](C(=O)N[C@@H](Cc2ccc(O)cc2)C(=O)N[C@@H](CCC(=O)O)C(=O)N[C@H](C(=O)N[C@@H](CCC(=O)O)C(=O)NCC(=O)N[C@H](C(=O)NCC(=O)NCC(=O)NCC(=O)N[C@@H](CCCCNC(=O)CCCC2(C)C(/C=C/C=C3\C=C(C(C)(C)C)Oc4cc5c(cc43)C(C)=CC(C)(C)N5CCCS(=O)(=O)O)=[N+](CCCS(=O)(=O)O)c3ccc(S(=O)(=O)[O-])cc32)C(N)=O)[C@@H](C)O)[C@@H](C)O)NC(=O)[C@H](Cc2c[nH]c3ccccc23)NC(=O)[C@@H]2CSSC[C@H](NC(=O)[C@H](Cc3ccc(O)cc3)NC1=O)C(=O)N[C@@H](CO)C(=O)NCC(=O)N1CCC[C@H]1C(=O)N1CCC[C@H]1C(=O)N[C@@H](CCCNC(=N)N)C(=O)N[C@@H](Cc1ccccc1)C(=O)N[C@@H](CCC(=O)O)C(=O)N2` (stereo partly drawn) [Compound 6] (Ac-AGSCYCSGPPRFECWCYETEGTGGGK(X1)-NH2; disulfide 4-16, 6-14), for which the “Tolerance of single intravenous administration” value (100 times the anticipated clinical dose) was “well tolerated and without any drug substance related adverse effects”. In addition, where the note is “day 1 p.i.”, the “Gross appearance of the kidneys at necropsy” value is listed as “diffusely green”. Moreover, the “Time until blue colouration of skin and urine disappeared” value (i.v., weak blue colouration of skin, moderate of urine, immediately after injection) is no more than 1 day p.i.
